Measured values reported in US20080226630A1.
pKd: −log10 of the molar value.

Molecular target: RSV protein F (recombinant or purified F protein) (human respiratory syncytial virus, strain not stated)
Assay: SPR Biacore 3000, Fab over amine-coupled recombinant protein F

## Fab fragment derived from commercially available Palivizumab (Synagis)
  pKd: 8.42
  koff: 0.000757 s⁻¹
  kon: 200000 M⁻¹ s⁻¹
  t1/2: 15 min
